{"source": "paper PMC3664827", "test_system": "Lsr2 (Mycobacterium tuberculosis)", "assay": "magnetic tweezers"}
{"substance": "lambda DNA 48,502 bp", "values": [{"measurement": "Kd", "value": 0.0575, "unit": "µM"}]}
